From article PMC9924070 (Science Translational Medicine, 2021)
Where a chain is given by its changes, count along the chain named. In names and notes the source's numbering stands.

B1: humVHH_S56A (VHH)
VHH: EVQLVESGGGLVQPGGSLRLSCAASGRTFSEYAMGWFRQAPGKEREFVATISWSGGATYYTDSVKGRFTISRDNAKNTVYLQMNSLRPEDTAVYYCAAAGLGTVVSEWDYDYDYWGQGTLVTVSS
notes: also called humVHH72_S56A; VHH72_h1_S56A
B2: humVHH (VHH)
VHH: B1 VHH with A57S
notes: also called humanized VHH72; VHH72_h1
B3: humVHH_S56A (VHH)
VHH: B1 VHH
notes: also called monomeric humanized VHH72 with the S56A substitution

Key:
[1] = biological target: mouse IgG1 Fc-fused SARS-CoV-2 RBD (SARS-CoV-2, UniProt P0DTC2); experiment: BLI; details: both partners purified
[2] = biological target: monomeric human Fc-fused SARS-CoV-2_RBD-SD1 (SARS-CoV-2, Wuhan-Hu-1, UniProt P0DTC2); experiment: BLI; details: both partners purified
[3] = biological target: SARS-CoV-1 spike (SARS-CoV-1, reference entry; strain not …, UniProt P59594); experiment: cell-based or functional assay

Binder	koff [1] [s⁻¹]	fold increase in affinity over humVHH [2] [fold]	neutralization of VSV SARS-CoV-1 spike pseudotype virus, potency against humVHH [3] [fold]
B1	0.019	–	–
B2	0.075	–	–
B3	–	~7	10
